# Results published in patent US20210253701A1 (Regeneron, published 2021).
# Target: T1, soluble heterodimeric hCD3ε/δ.mFc protein (human)
# T1 construct: also called soluble human CD3; human CD3 heterodimeric protein
# Assay: SPR 37 C, antigen-capture format
# T1 sequence (P07766 23-126, stated change not applied, chain 1 of 2): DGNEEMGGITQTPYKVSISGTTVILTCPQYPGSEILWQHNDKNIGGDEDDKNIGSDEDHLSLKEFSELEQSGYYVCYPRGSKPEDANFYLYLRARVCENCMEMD
# T1 sequence (P04234 22-105, stated change not applied, chain 2 of 2, further chain): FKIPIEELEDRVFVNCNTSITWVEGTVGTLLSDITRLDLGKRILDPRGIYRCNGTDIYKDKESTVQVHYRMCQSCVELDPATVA
row,Binder,T½
1,BSPSMA/CD3-800 (bispecific antibody) chain 1: QVQLVESGGGVVQPGRSLRLSCAASGFTFSSYGMHWVRQAPGKGLEWVAVISYAGNNKYYADSVKGRFTVSRDNSKKTLYLQMNSLRSEDTAVYYCAKDSYYDFLTDPDVLDIWGQGTMVTVSS chain 2: EVQLVESGGGLVQPGRSLRLSCAASGFTFDDYSMHWVRQAPGKGLEWVSGISWNSGSIGYADSVKGRFTISRDNAKNSLYLQMNSLRAEDTALYYCAKYGSGYGKFYHYGLDVWGQGTTVTVSS chain 3: DIQMTQSPSSLSASVGDSVTITCRASQSINNYLNWYQQKPGKAPKLLIYTASSLLSGVPSRFSGSGSGTDFTLTISGLHPEDFATYFCQQSFSTPPITFGQGTRLDIK,10 min
2,BSPSMA/CD3-1000 (bispecific antibody) chain 1: QVQLVESGGGVVQPGRSLRLSCAASGFTFSSYGMHWVRQAPGKGLEWVAVISYAGNNKYYADSVKGRFTVSRDNSKKTLYLQMNSLRSEDTAVYYCAKDSYYDFLTDPDVLDIWGQGTMVTVSS chain 2: EVQLVESGGGLVQPGRSLRLSCAASGFTFDDYSMHWVRQAPGKGLEWVSGISWNSGSKGYADSVKGRFTISRDNAKNSLYLQMNSLRAEDTALYYCAKYGSGYGKFYYYGLDVWGQGTTVTVSS chain 3: DIQMTQSPSSLSASVGDSVTITCRASQSINNYLNWYQQKPGKAPKLLIYTASSLLSGVPSRFSGSGSGTDFTLTISGLHPEDFATYFCQQSFSTPPITFGQGTRLDIK,1.8 min
3,BSPSMA/CD3-005 (bispecific antibody) chain 1: QVQLVESGGGVVQPGRSLRLSCAASGFTFSSYGMHWVRQAPGKGLEWVAVISYAGNNKYYADSVKGRFTVSRDNSKKTLYLQMNSLRSEDTAVYYCAKDSYYDFLTDPDVLDIWGQGTMVTVSS chain 2: EVQLVESGGGLVQPGRSLRLSCAASGFTFDDYSMHWVRQAPGKGLEWVSGISWNSGSIGYADSVKGRFTISRDNAKNSLYLQMNSLRAEDTALYYCAKYGSGYGKFYYYGMDVWGQGTTVTVSS chain 3: DIQMTQSPSSLSASVGDSVTITCRASQSINNYLNWYQQKPGKAPKLLIYTASSLLSGVPSRFSGSGSGTDFTLTISGLHPEDFATYFCQQSFSTPPITFGQGTRLDIK,2 min
4,BSPSMA/CD3-900 (bispecific antibody) chain 1: QVQLVESGGGVVQPGRSLRLSCAASGFTFSSYGMHWVRQAPGKGLEWVAVISYAGNNKYYADSVKGRFTVSRDNSKKTLYLQMNSLRSEDTAVYYCAKDSYYDFLTDPDVLDIWGQGTMVTVSS chain 2: EVQLVESGGGLVQPGRSLRLSCAASGFTFDDYSMHWVRQAPGKGLEWVSGISWNSGSKGYADSVKGRFTISRDNAKNSLYLQMNSLRAEDTALYYCAKDGSGYGKFYHYGLDVWGQGTTVTVSS chain 3: DIQMTQSPSSLSASVGDSVTITCRASQSINNYLNWYQQKPGKAPKLLIYTASSLLSGVPSRFSGSGSGTDFTLTISGLHPEDFATYFCQQSFSTPPITFGQGTRLDIK,2.3 min

# More lines, now with the values ahead:
row,T½,Binder
1,2.3 min,BSPSMA/CD3-1900 (bispecific antibody) chain 1: QVQLVESGGGVVQPGRSLRLSCAASGFTFSSYGMHWVRQAPGKGLEWVAVISYAGNNKYYADSVKGRFTVSRDNSKKTLYLQMNSLRSEDTAVYYCAKDSYYDFLTDPDVLDIWGQGTMVTVSS chain 2: EVQLVESGGGLVQPGRSLRLSCAASGFTFDDYSMHWVRQAPGKGLEWVSGISWNSGSIGYADSVKGRFTISRDNAKNSLYLQMNSLRAEDTALYYCAKDGSGYGKFYHYGMDVWGQGTTVTVSS chain 3: DIQMTQSPSSLSASVGDSVTITCRASQSINNYLNWYQQKPGKAPKLLIYTASSLLSGVPSRFSGSGSGTDFTLTISGLHPEDFATYFCQQSFSTPPITFGQGTRLDIK
2,1.9 min,BSPSMA/CD3-1500 (bispecific antibody) chain 1: QVQLVESGGGVVQPGRSLRLSCAASGFTFSSYGMHWVRQAPGKGLEWVAVISYAGNNKYYADSVKGRFTVSRDNSKKTLYLQMNSLRSEDTAVYYCAKDSYYDFLTDPDVLDIWGQGTMVTVSS chain 2: EVQLVESGGGLVQPGRSLRLSCAASGFTFDDYSMHWVRQAPGKGLEWVSGISWNSGSKGYADSVKGRFTISRDNAKNSLYLQMNSLRAEDTALYYCAKDGSGYGKFYYYGLDVWGQGTTVTVSS chain 3: DIQMTQSPSSLSASVGDSVTITCRASQSINNYLNWYQQKPGKAPKLLIYTASSLLSGVPSRFSGSGSGTDFTLTISGLHPEDFATYFCQQSFSTPPITFGQGTRLDIK
3,4.9 min,BSPSMA/CD3-2100 (bispecific antibody) chain 1: QVQLVESGGGVVQPGRSLRLSCAASGFTFSSYGMHWVRQAPGKGLEWVAVISYAGNNKYYADSVKGRFTVSRDNSKKTLYLQMNSLRSEDTAVYYCAKDSYYDFLTDPDVLDIWGQGTMVTVSS chain 2: EVQLVESGGGLVQPGRSLRLSCAASGFTFDDYSMHWVRQAPGKGLEWVSGISWNSGSKGYADSVKGRFTISRDNAKNSLYLQMNSLRAEDTALYYCAKDGSGYGKFYYYGMDVWGQGTTVTVSS chain 3: DIQMTQSPSSLSASVGDSVTITCRASQSINNYLNWYQQKPGKAPKLLIYTASSLLSGVPSRFSGSGSGTDFTLTISGLHPEDFATYFCQQSFSTPPITFGQGTRLDIK
4,4.7 min,BSPSMA/CD3-1600 (bispecific antibody) chain 1: QVQLVESGGGVVQPGRSLRLSCAASGFTFSSYGMHWVRQAPGKGLEWVAVISYAGNNKYYADSVKGRFTVSRDNSKKTLYLQMNSLRSEDTAVYYCAKDSYYDFLTDPDVLDIWGQGTMVTVSS chain 2: EVQLVESGGGLVQPGRSLRLSCAASGFTFDDYSMHWVRQAPGKGLEWVSGISWNSGSKGYADSVKGRFTISRDNAKNSLYLQMNSLRAEDTALYYCAKDGSGYGKFYHYGMDVWGQGTTVTVSS chain 3: DIQMTQSPSSLSASVGDSVTITCRASQSINNYLNWYQQKPGKAPKLLIYTASSLLSGVPSRFSGSGSGTDFTLTISGLHPEDFATYFCQQSFSTPPITFGQGTRLDIK
5,3.5 min,BSPSMA/CD3-1400 (bispecific antibody) chain 1: QVQLVESGGGVVQPGRSLRLSCAASGFTFSSYGMHWVRQAPGKGLEWVAVISYAGNNKYYADSVKGRFTVSRDNSKKTLYLQMNSLRSEDTAVYYCAKDSYYDFLTDPDVLDIWGQGTMVTVSS chain 2: EVQLVESGGGLVQPGRSLRLSCAASGFTFDDYSMHWVRQAPGKGLEWVSGISWNSGSIGYADSVKGRFTISRDNAKNSLYLQMNSLRAEDTALYYCAKYGSGYGKFYHYGMDVWGQGTTVTVSS chain 3: DIQMTQSPSSLSASVGDSVTITCRASQSINNYLNWYQQKPGKAPKLLIYTASSLLSGVPSRFSGSGSGTDFTLTISGLHPEDFATYFCQQSFSTPPITFGQGTRLDIK
6,3.8 min,BSPSMA/CD3-1700 (bispecific antibody) chain 1: QVQLVESGGGVVQPGRSLRLSCAASGFTFSSYGMHWVRQAPGKGLEWVAVISYAGNNKYYADSVKGRFTVSRDNSKKTLYLQMNSLRSEDTAVYYCAKDSYYDFLTDPDVLDIWGQGTMVTVSS chain 2: EVQLVESGGGLVQPGRSLRLSCAASGFTFDDYSMHWVRQAPGKGLEWVSGISWNSGSKGYADSVKGRFTISRDNAKNSLYLQMNSLRAEDTALYYCAKYGSGYGKFYYYGMDVWGQGTTVTVSS chain 3: DIQMTQSPSSLSASVGDSVTITCRASQSINNYLNWYQQKPGKAPKLLIYTASSLLSGVPSRFSGSGSGTDFTLTISGLHPEDFATYFCQQSFSTPPITFGQGTRLDIK
7,4.7 min,BSPSMA/CD3-1200 (bispecific antibody) chain 1: QVQLVESGGGVVQPGRSLRLSCAASGFTFSSYGMHWVRQAPGKGLEWVAVISYAGNNKYYADSVKGRFTVSRDNSKKTLYLQMNSLRSEDTAVYYCAKDSYYDFLTDPDVLDIWGQGTMVTVSS chain 2: EVQLVESGGGLVQPGRSLRLSCAASGFTFDDYSMHWVRQAPGKGLEWVSGISWNSGSIGYADSVKGRFTISRDNAKNSLYLQMNSLRAEDTALYYCAKDGSGYGKFYHYGLDVWGQGTTVTVSS chain 3: DIQMTQSPSSLSASVGDSVTITCRASQSINNYLNWYQQKPGKAPKLLIYTASSLLSGVPSRFSGSGSGTDFTLTISGLHPEDFATYFCQQSFSTPPITFGQGTRLDIK
8,11.3 min,BSPSMA/CD3-1100 (bispecific antibody) chain 1: QVQLVESGGGVVQPGRSLRLSCAASGFTFSSYGMHWVRQAPGKGLEWVAVISYAGNNKYYADSVKGRFTVSRDNSKKTLYLQMNSLRSEDTAVYYCAKDSYYDFLTDPDVLDIWGQGTMVTVSS chain 2: EVQLVESGGGLVQPGRSLRLSCAASGFTFDDYSMHWVRQAPGKGLEWVSGISWNSGSKGYADSVKGRFTISRDNAKNSLYLQMNSLRAEDTALYYCAKYGSGYGKFYHYGMDVWGQGTTVTVSS chain 3: DIQMTQSPSSLSASVGDSVTITCRASQSINNYLNWYQQKPGKAPKLLIYTASSLLSGVPSRFSGSGSGTDFTLTISGLHPEDFATYFCQQSFSTPPITFGQGTRLDIK
9,4.7 min,BSPSMA/CD3-1300 (bispecific antibody) chain 1: QVQLVESGGGVVQPGRSLRLSCAASGFTFSSYGMHWVRQAPGKGLEWVAVISYAGNNKYYADSVKGRFTVSRDNSKKTLYLQMNSLRSEDTAVYYCAKDSYYDFLTDPDVLDIWGQGTMVTVSS chain 2: EVQLVESGGGLVQPGRSLRLSCAASGFTFDDYSMHWVRQAPGKGLEWVSGISWNSGSIGYADSVKGRFTISRDNAKNSLYLQMNSLRAEDTALYYCAKYGSGYGKFYYYGLDVWGQGTTVTVSS chain 3: DIQMTQSPSSLSASVGDSVTITCRASQSINNYLNWYQQKPGKAPKLLIYTASSLLSGVPSRFSGSGSGTDFTLTISGLHPEDFATYFCQQSFSTPPITFGQGTRLDIK

# Target: T1, soluble heterodimeric hCD3ε/δ.mFc …
# Assay: SPR 37 C, antigen-capture format
# Remark: another data set of the same source
row,Kd,Binder
1,> 500 nM,BSPSMA/CD3-200 (bispecific antibody) chain 1: QVQLVESGGGVVQPGRSLRLSCAASGFTFSSYGMHWVRQAPGKGLEWVAVISYAGNNKYYADSVKGRFTVSRDNSKKTLYLQMNSLRSEDTAVYYCAKDSYYDFLTDPDVLDIWGQGTMVTVSS chain 2: EVQLVESGGGLVQPGRSLRLSCAASGFTFDDYAMHWVRQAPGKGLEWVSGISWNSGSIGYADSVKGRFTISRDNAKNSLYLQMNSLRAEDTALYYCAKDGSGYGYFYYYGMDVWGQGTTVTVSS chain 3: DIQMTQSPSSLSASVGDSVTITCRASQSINNYLNWYQQKPGKAPKLLIYTASSLLSGVPSRFSGSGSGTDFTLTISGLHPEDFATYFCQQSFSTPPITFGQGTRLDIK
2,> 500 nM,BSPSMA/CD3-300 (bispecific antibody) chain 1: QVQLVESGGGVVQPGRSLRLSCAASGFTFSSYGMHWVRQAPGKGLEWVAVISYAGNNKYYADSVKGRFTVSRDNSKKTLYLQMNSLRSEDTAVYYCAKDSYYDFLTDPDVLDIWGQGTMVTVSS chain 2: EVQLVESGGGLVQPGRSLRLSCAASGFTFDDYSMHWVRQAPGKGLEWVSGISWNSGSIGYADSVKGRFTISRDNAKNSLYLQMNSLRAEDTALYYCAKDGSGYGYFYYYGMDVWGQGTTVTVSS chain 3: DIQMTQSPSSLSASVGDSVTITCRASQSINNYLNWYQQKPGKAPKLLIYTASSLLSGVPSRFSGSGSGTDFTLTISGLHPEDFATYFCQQSFSTPPITFGQGTRLDIK
